Reference: a protein production outcome set (Wang et al. 2014)

Test: label from the status in PepcDB records

Protein production, failed:
MSSNMQQTINVWDPLIRIFHWSLVGFFTLAYLTEGEDEWMNIHSYAGYSILTLLVFRLLWGVIGTHHARFNHFITRPSIAWTYLKQLFSGNAKDYIGHNPAGALMIIALITSIAVAGFSGMALYATDSQGPLATSFFATWPEGALKEVHEFFANFSLFLIATHIGGVIVSSLLHKENLIRAMVTGKKQRPLIQQDERQ
MSSPAILLFDIDGVIRDVAGSYRRALQVTVEHYSGWQPMAADIDALKAEGCWNNDWDASLELLRRHENDVPSRSELIEVFSGFYFGGDPEGDPAEWQGFIGDEPLLVTRAFFDELTRHDIRWGFVSGAEPPSARYVLQQRLDLKDPPLIAMGDAPDKPDPTGLIRLAEQMAAGEVPHWIAYIGDTVADVQTVLNARKRRPELPWRSLAVAPPHVTDVSTYHRQLQDAGADRIVGATRELLPMLLDELA
MSSPARSPSVGGATPKQGARTPTRGIASQDVETPMRMGPGRAVRPSDNISLPPTSPGNISLPATSPARGLGANMSEIDLSSPLNYGTPSSMGSIRTPRSGIRGTPLRARPDIRTDKRIRQVAIGGGSGLEPIPEKGSETTDPVSESSQAPQLVVWGTNVVVSQCKSKFKSFIMRFIDPSAEQDEISENIDVNQPLYLQKLEEIHTLEEPYLNLNCAHLKTFDQDLYRQLICYPQEVIPGFDMAINEMFFERYPAALLEHQIQVRPFNADKTRNMRSLNPEDMDQLISISGMVIRSSNVIPEMREAFFSCNICSFSTTVEVDRGRINQPTLCTNCNTNHCFRLIHNRSEFTDKQLVKLQESPDDMAAGQTPHNVLLYAHNDLVDKVQPGDRVTVTGIYRATPLKTGGLSSSVKSVYKTHVDVVHFRKVDNKRLYEDEEGKDHIFPPERVELLQLLAKKPDIYDRLARAIAPSIYENDDIKKGILLQLFGGTKKKHATLGRQNFRSEIHLLLCGDPGTSKSQMLQYVFNLVPRSQYTSGRGSSAVGLTAYVTKDPETRQLVLQTGALVLADNGVCCIDEFDKMNDSTRSVLHEVMEQQTLSIAKAGIICQLNARTSILAAANPAESQWNKRKNIIDNVQLPHTLLSRFDLIFLVLDPQDEIFDKRLASHLVSLYYVTRHEEEDTMFDMSVLRDYIAYAREHLSPTLSDEAQQRLIQAYVDMRKVGAGRGQISAYPRQLESLIRLSEAHAKVRLSNQVELLDVEEAWRLHREALKQSATDPLSGKIDVGILTTGLSTAARKKRADLVAAIKENLKKKGKVLTVPYQKLFSDIKEGSQIMITREQFEDALKEVQDEGAIVVMGKNTIRIC
MSSPSEFPLSEAPQSARKGLLPIAMVLFSFTFFTGTMFAGGKLGMAFSFVDMLWVATLGNSLLALYAAALAFIASRSGLNTVLMGRFCFGEAGSRLSDFLLGFAELGWYAWGTATVAIVLVKLLGLADGFGMPLMVLFGLGFSITAIIGFKGLDLLSRVSVPLMFVLLLVSMYIATRDAGGFAGLAAVVPHETMTFSAAVTMVFGTFASGATQATNWTRLARSGRVAVIASGVAFLLGNGLMVVAGAWCAMVYQQADIVDVMMLQGLSFAAVVMLCLNLWTIQGPTIYNVSAAACHLLRSERRRTATLVAAGVGIVLAMGGMYEMLIPFLVLLGSIIPPVGGVIMADFWYRHRGKYPPLCTANLPRYNLTGLFAYAVGAVLAYASPWVAPLVGIAASAVCYIVILELGARRRAPGQAGVEP
MSSPSRTVTLPDIMCPKCIKCGSERTHHSRVRPSERTLSMLFLRPIRCRQCKERFWVKNSNAFLALGGVLFIGALLITTVWLIIEHNMADPYAGSAPEIGTEDPADSVARGTSKSQNGQEALSAPAPGTRGTHDVTQSPGSIPSSAPARNPLEDHRFTVRLYQEAANNGDADSQYKLGLLYLTGNGALQDFAEAAKWLQLAAEQGYGPAQYELGLIYRNGYGLPTDHVQSYVWLNLAAAAGVQQAMGARDEVMRALSSKQLAQAQKISREWLAARTGPESGKEADRVESAHPRRK
MSSRNTLGNDEPMNQEKEGVESKDTPRTETKGVEKKHSVLVKQDWLPSDYAQYVDEKILNIGFEPDTFQRQAFYLLSRASSVFVSAHTSSGKTLVAEYAISLSQIHGTRTIYTSPIKALSNQKYHDFKQKYDDVGIITGDVQVNPAAKCLVMTTEILRNLVYRNGDLLRDTEFVVFDEVHYINDSERGVVWEECIIMIPRHINFIMLSATIPNSLEFSEWVGRTKDKTIYVISTSKRAVPLEHVIYCDWCVYSIDDGGGKRNASNFKGDLVPFSKKTRPTGKFKILDVANFVVKKKLTPAIFFCFSKRKCEDYAEILRTLNLNDTKSREEVKLFLSEATRCLSPEDRNLPQVLSMSSMVLNGVAVHHGSLLPFVKECVELLFSMNLVKLLIATETFAMGVNMPAKCCVFLSLSKIDGGVFRYISSGEYIQMSGRAGRRGMDAVGTVMIADPKMPSLSTIQGIIHGTPFSLSSQFRLSFGLILISLRSNIRVEDLMRRSYGEHRSQRNYERDMKKLSELESVEEDVCNVCGDLSKYIGAVEEICARNWKLIAKHHVLKEGSRVLLKNNAVGTVERVSGATVFLKQKDEALDNGTPIPTKFLAYPLGTRKPLDRSKVTFENIFCVLDGEKALWNYETANVMDVLEIRKIKSLYDYLLSEQQVCREFDQHYSNALRVHCKRKEMNDIKIRYNVCSLGMIDEYNRRMEFLKKKGFVEEMITIKGRAAAEIHTVNEVLVVEMIFSNEFRQMDGRKIVSLMSSMIHEEADGQELGKALYDECKRMDECFRELSRDLDELMIPPFTPLNFSLVDAVYDWCNGSSLGKIVSRYNVLEGTFVRLVLRLEECCRELISVSTMIGDKSLEEKIGDASASMKRDIIFLPSLYL
MSSRSHARPEAVTRIASLAECGETVACMACARYPSCLAHLRLRMKRHFSMLRDFQLADWFTLANAFCGTGAVFAAMRFLQEEHRGDLLLGMALIPLAFVFDALDGHVARWRKASSTLGRELDSLADVISFGVAPAALGYACGMRGGWDWLVLSYFVCCGVSRLARYNVTAEEIAGEADKVPYFEGTPIPTSLLLVILLAVAASIGHIGETLWWGQWQLGPWQFHPLVLLFAVSGSLMISKTLRIPKL
MSSSLMTSSGFRFLFPIALLGMVSVGMGNIIQMTQSNWGIAANLPYILLGCALVLCYSFKQGRESMVCLSMLVAYFVIQHRLQVPLNSGTALLELTILATLLPVSFLTVFLFNKDGFDSKAMFIYVLMLVMFILWSYIILAYYVDGGFEQWTSGILFIVPSVSKLPFILVLYCVGIVCFLGILLLKTNKIIHAMTYSAMALASATFIFFDVQYISSTMFTLTGLLIIIYSTSASHQLAFTDSLTQIPSRRALDLDLKHMGRKFTIAMLDVDHFKKFNDTYGHDIGDDVLKMVASRLMKTRGGAKVYRFGGEEFTMVFKGKNVEDCRQYIEEARKAIAEYEMILRDKASRPDDHKQGQQNRGTEDMQRESVFVTASFGAADSRNGREPAEVIKLADAALYKAKKAGRNCTRVNQN
MSSTALEMASRFVNRSPFNRWLGMSVLEAGEQGIVLGIKWREELISSPEIRSTHGGILATLVDAAGDYAVALKTGHPVPTMDMHVDYHRVATPGDLRAEGQVIHFGKRFATAHARVLDMDGNLVASGRALYLIRAPQPGAAQGAA
MSSTLRFHVLGRGAALPRAVAPYFVLRTDNWDDFGHRVQFHLILIVSGAPEKRIGSLKVLQRTSDKGEAMMVATDTELPSKFVELDDTFVSLGQDDDFYKKLHEALGDRAGEVLDALRDIAWRPAFASDFEPTPAFRNAMMRENGAQRARRFGRAWALGEQITERPAFDYVGTIEGADIKVEGEFDFSATDPVPGRIVGLIGRNAVGKTRYLASLGSDLAQISRRSAEALEAREARFPGGRPLFTRIIAISYSAFDRFKRPPMDSSSSYVYCGIRNDRGGLSRSALIDRYRLNQVRIRERGEQRSWMRHMKTILGDQGAQLTASLEEEIRSDSTDDSALSSLSSGQSILAHFVTALLAWIQPNSLVLFDEPETHLHPNAVASLFLVLSQVLQEFDSYAVIATHSPVVIQEIPAKRVLVFRREGNVTIAEPLLLESFGESVTELTRHVFETGEVESLYKRTLRELAAEDTVEDVLARFELGLSLSAQAYLLAQYSKKAGGRTLEHHHHHH

Protein production, not failed:
MSSNAQVRPPLPPFTRESAIEKIRLAEDGWNSRDPERVSLAYTLDTQWRNRAEFAHNREEAKAFLTRKWAKELDYRLIKELWAFTDNRIAVRYAYEWHDDSGNWFRSYGNENWEFDEQGLMARRFACINDMPIKAQERKFHWPLGRRPDDHPGLSELGLLEHHHHHH
MSSPKISIIIPVYMAESYLHRCVDSIITQTFTDWELLLVDDGSPDHSGELCEKYASAYKSRIKAFHKPNGGVASAREFGMQQARGEYSIHVDPDDWIDSNTLEELYQQAVKEQADMVICDFMMEYPNRQIHNCQKPQLLDSSSFMHQLLQQERHGSLCNKLIRTELYHKYQLHFPEKMICWEDLYICCSILLHGCKLAYVPHALYHYDFYTNDNSMVRHTDMRGLQAQIDFCRLMQAKISPEYLPELNELKGITLITAFRNQLLNEQAIRSLFPEINDWYVTRYGHDYEKSNYYGLTLVLRGYNFKTARRRMFVAKFLVQIKNKITRMLLEHHHHHH
MSSSHLAERHAFSDLSLLSEALAQSVTVTLRNAIERYGKASLVVPGGHTPVVYLPRLAQMDLPWQQVFITLSDERWVEPTSEQSNERLVREHFLQHMQQQPHFIALKTGHIHPDQAITDIDARLAELPQPFSLVILGLGEDGHIASLFPGMALNPDTTSLCQTATPPAAPSLRISLSLHALINSDRIILVITGKEKRQLIDRLIESPDQNIPFVRLMQFKPVELFETD
MSSTKRQKNRVLVKLKKRKVRKDKIEKWAELALSALGLNNVELSVYITDDQEIRELNKTYRKKDKPTDVLSFPMGEEFGGYKILGDVVISQDTAERQARELGHSLEEEVKRLIVHGIVHLLGYDHEKGGEEEKKFRELENYVLSKLSKAL
